In IntAct's records for PubMed 20543827:

B1: Retinoic acid receptor alpha (Homo sapiens), P10276 (parent)
chain: MASNSSSCPTPGGGHLNGYPVPPYAFFFPPMLGGLSPPGALTTLQHQLPVSGYSTPSPATIETQSSSSEEIVPSPPSPPPLPRIYKPCFVCQDKSSGYHYGVSACEGCKGFFRRSIQKNMVYTCHRDKNCIINKVTRNRCQYCRLQKCFEVGMSKESVRNDRNKKKKEVPKPECSESYTLTPEVGELIEKVRKAHQETFPALCQLGKYTTNNSSEQRVSLDIDLWDKFSELSTKCIIKTVEFAKQLPGFTTLTIADQITLLKAACLDILILRICTRYTPEQDTMTFSDGLTLNRTQMHNAGFGPLTDLVFAFANQLLPLEMDDAETGLLSAICLICGDRQDLEQPDRVDMLQEPLLEALKVYVRKRRPSRPHMFPKMLMKITDLRSISAKGAERVITLKMEIPGSMPPLIQEMLENSEGLDTLSGQPGGGGRDGGGLAPPPGSCSPSLSPSSNRSSPATHSP

Variants of: B1
Conditions: with ncor1_human NCOR1, O75376
Sequence of ncor1_human NCOR1, O75376 (O75376 whole entry): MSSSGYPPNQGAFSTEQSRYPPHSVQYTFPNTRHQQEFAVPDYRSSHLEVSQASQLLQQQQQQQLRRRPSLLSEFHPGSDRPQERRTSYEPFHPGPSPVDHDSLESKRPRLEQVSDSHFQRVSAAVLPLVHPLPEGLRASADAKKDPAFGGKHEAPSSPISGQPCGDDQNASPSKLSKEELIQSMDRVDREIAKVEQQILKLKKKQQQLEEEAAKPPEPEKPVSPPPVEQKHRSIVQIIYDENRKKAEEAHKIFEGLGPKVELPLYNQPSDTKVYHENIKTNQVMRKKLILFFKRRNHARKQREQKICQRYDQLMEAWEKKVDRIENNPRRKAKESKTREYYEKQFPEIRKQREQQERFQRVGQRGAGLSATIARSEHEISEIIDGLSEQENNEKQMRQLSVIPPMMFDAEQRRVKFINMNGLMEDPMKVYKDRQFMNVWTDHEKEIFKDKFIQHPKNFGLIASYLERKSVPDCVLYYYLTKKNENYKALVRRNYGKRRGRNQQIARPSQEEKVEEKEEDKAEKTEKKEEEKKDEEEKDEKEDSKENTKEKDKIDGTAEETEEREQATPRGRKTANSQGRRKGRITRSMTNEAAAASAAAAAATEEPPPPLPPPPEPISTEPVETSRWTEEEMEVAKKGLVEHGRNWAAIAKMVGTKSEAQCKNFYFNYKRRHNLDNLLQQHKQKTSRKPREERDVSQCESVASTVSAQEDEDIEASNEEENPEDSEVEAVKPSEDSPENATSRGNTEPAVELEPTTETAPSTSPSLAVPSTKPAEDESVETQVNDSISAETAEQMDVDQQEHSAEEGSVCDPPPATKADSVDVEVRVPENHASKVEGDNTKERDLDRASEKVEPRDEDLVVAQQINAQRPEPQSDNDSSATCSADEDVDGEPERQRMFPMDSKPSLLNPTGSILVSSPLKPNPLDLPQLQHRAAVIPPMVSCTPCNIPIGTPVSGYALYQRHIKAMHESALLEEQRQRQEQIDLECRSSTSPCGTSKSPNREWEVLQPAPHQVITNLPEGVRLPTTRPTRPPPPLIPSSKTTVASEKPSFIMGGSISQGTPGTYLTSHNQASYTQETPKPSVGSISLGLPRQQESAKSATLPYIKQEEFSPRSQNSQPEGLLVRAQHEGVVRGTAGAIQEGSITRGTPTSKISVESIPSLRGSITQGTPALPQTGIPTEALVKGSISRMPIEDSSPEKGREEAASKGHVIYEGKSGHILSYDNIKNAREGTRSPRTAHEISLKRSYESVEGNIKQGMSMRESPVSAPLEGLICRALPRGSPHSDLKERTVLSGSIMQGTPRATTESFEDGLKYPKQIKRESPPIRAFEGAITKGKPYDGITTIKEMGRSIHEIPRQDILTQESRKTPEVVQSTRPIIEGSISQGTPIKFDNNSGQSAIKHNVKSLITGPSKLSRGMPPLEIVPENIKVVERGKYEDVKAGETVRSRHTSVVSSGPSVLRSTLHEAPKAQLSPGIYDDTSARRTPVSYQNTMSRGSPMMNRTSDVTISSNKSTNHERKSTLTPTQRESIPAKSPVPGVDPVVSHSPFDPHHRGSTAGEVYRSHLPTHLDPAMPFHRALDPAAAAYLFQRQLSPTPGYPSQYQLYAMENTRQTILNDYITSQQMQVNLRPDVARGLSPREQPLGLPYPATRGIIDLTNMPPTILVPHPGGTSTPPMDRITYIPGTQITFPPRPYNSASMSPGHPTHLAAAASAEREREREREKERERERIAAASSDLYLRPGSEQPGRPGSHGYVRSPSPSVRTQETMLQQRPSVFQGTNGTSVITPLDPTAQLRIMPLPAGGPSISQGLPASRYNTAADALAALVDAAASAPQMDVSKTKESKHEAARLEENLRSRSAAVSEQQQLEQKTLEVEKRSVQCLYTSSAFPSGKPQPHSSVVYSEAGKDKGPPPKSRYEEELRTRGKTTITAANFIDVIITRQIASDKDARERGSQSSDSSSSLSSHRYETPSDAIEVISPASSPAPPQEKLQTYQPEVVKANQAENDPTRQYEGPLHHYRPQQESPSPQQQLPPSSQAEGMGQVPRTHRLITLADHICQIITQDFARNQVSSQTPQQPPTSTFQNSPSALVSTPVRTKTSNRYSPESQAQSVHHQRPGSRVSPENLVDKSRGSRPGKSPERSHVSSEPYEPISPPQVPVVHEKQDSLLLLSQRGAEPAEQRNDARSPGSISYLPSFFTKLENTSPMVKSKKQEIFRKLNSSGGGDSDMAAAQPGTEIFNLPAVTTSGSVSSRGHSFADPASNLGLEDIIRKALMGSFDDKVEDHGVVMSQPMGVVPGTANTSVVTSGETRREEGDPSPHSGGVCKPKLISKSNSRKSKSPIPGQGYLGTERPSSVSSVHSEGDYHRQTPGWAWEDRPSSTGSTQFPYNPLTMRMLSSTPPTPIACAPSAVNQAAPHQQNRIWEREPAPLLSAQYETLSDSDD

| Variant | effect of a mutation on the interaction |
| --- | --- |
| I396E | decreasing interaction |

Variants of: B1
Conditions: with ncor1_mouse Ncor1, Q60974

| Variant | effect of a mutation on the interaction |
| --- | --- |
| I396E | disrupting interaction |

Variants of: B1
Conditions: with ncor2_human NCOR2, Q9Y618
Sequence of ncor2_human NCOR2, Q9Y618 (Q9Y618 whole entry): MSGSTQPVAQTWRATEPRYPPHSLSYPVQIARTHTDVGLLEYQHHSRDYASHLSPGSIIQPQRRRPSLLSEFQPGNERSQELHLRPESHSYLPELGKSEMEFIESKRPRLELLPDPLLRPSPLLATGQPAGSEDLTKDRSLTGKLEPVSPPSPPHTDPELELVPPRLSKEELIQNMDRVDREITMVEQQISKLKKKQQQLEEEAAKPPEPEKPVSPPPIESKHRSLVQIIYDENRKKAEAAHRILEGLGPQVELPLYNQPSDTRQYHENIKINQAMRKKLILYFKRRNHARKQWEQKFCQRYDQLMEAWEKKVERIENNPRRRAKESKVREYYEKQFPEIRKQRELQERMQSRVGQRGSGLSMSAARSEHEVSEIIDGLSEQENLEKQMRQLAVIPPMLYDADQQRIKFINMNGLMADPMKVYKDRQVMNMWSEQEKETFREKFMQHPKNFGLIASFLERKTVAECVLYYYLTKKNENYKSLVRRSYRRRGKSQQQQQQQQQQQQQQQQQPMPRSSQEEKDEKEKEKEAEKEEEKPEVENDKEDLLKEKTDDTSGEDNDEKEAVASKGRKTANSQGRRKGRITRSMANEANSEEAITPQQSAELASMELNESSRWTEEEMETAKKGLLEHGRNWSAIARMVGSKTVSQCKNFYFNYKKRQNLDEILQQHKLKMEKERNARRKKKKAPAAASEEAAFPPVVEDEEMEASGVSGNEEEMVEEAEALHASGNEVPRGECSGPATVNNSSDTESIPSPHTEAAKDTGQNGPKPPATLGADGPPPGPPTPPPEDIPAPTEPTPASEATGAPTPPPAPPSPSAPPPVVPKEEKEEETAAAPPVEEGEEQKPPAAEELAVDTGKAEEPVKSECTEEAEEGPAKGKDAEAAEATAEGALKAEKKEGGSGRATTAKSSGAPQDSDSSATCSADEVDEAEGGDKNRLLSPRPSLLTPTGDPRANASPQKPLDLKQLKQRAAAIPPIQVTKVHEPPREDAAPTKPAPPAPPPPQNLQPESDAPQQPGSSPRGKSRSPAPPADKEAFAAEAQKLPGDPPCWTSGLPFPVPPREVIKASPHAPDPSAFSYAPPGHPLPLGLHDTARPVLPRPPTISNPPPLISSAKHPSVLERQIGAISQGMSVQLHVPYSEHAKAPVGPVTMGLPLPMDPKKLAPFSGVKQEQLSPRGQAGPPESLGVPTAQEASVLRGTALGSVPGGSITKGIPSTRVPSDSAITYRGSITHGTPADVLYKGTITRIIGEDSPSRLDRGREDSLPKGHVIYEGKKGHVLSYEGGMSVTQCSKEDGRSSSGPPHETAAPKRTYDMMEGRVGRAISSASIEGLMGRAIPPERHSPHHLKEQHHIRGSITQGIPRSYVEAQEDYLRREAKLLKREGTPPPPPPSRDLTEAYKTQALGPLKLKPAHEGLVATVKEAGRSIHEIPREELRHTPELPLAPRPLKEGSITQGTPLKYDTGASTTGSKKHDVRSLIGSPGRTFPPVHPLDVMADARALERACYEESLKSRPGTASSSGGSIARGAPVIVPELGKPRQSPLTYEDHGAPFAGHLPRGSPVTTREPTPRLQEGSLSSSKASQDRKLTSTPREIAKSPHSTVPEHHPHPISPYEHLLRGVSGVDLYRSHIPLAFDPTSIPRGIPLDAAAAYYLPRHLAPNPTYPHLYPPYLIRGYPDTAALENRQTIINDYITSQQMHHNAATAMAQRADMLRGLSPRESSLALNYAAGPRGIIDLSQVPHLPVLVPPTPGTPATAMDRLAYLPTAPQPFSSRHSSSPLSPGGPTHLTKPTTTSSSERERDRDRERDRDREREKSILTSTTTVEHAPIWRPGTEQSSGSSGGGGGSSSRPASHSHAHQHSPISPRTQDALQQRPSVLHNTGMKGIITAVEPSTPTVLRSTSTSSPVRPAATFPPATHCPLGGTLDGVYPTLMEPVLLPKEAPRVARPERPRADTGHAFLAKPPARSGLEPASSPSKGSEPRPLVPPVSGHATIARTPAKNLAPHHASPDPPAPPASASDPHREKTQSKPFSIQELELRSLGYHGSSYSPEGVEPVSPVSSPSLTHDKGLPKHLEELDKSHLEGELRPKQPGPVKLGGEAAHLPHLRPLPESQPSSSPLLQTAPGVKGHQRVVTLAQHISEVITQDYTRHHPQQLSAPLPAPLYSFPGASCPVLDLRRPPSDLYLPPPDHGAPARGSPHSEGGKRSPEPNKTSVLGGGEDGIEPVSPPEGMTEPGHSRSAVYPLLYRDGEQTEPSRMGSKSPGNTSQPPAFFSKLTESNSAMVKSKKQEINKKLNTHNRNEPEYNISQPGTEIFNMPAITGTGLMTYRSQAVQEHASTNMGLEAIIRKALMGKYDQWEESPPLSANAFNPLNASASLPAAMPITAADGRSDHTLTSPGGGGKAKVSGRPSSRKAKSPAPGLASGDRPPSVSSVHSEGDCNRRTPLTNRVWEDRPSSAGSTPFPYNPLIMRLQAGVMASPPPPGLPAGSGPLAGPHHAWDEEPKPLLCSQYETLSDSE

| Variant | effect of a mutation on the interaction |
| --- | --- |
| I396E | disrupting interaction |

Variants of: B1
Conditions: with ncor2_human NCOR2, Q9Y618
Remark: another data set of the same source

| Variant | effect of a mutation on the interaction |
| --- | --- |
| I396E | decreasing interaction |
